Assay results reported in patent publication US20260167731A1 (DOMAIN THERAPEUTICS, published 2026).
Where “and” joins values, the source holds several entries; their conditions need not be identical. Identical values can stand only once. Values belong to the binder of their own block, whether it stands above or below them.

What was measured:
human CCR8 [1] = molecular target: T1, human CCR8 (human, UniProt P51685 1-355); assay: cell-based or functional assay
human CCR8 [2] = molecular target: T1, human CCR8; assay: cell-based or functional assay; remark: listed apart in the source
human CCR8 [3] = molecular target: T1, human CCR8; assay: cell-based or functional assay; remark: listed apart in the source
human CCR8 [4] = molecular target: T1, human CCR8; assay: cell-based or functional assay; remark: listed apart in the source
[5] = molecular target: pm2, modified CCR8 related peptide (human, sulfated tyrosine at Y16); assay: ELISA on coated CCR8 peptide (500 ng/mL), OD [cont.]
How it was run: (§1)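 OD after 15 min TMB development reflects binding of each anti-CCR8 mAb, tested at 1 μg/mL and diluted 1/10, to CCR8-related peptides adsorbed at 500 ng/mL from carbonate/bicarbonate buffer. Antibody incubation lasted 90 min at room temperature.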

[6] = molecular target: pm1, modified CCR8 related peptide (human, sulfated tyrosine at Y15); assay: as above
How it was run: as §1

[7] = molecular target: pm8, modified CCR8 related peptide (human, sulfated tyrosines at Y15, Y16 and Y17); assay: as above
How it was run: as §1

[8] = molecular target: pm6, modified CCR8 related peptide (human, sulfated tyrosines at Y16 and Y17); assay: as above
How it was run: as §1

[9] = molecular target: pm3, modified CCR8 related peptide (human, sulfated tyrosine at Y17); assay: as above
How it was run: as §1

[10] = molecular target: T2, pwt1, unmodified CCR8 related peptide (human, none (non-sulfated Y15, Y16, Y17)); assay: as above
T2 construct: First 34 amino acids of human CCR8, synthetic; also called unmodified peptide
How it was run: as §1

[11] = molecular target: pm5, modified CCR8 related peptide (human, sulfated tyrosines at Y15 and Y17); assay: as above
How it was run: as §1

[12] = molecular target: pm4, modified CCR8 related peptide (human, sulfated tyrosines at Y15 and Y16); assay: as above
How it was run: as §1

human CCR8 [13] = molecular target: T1, human CCR8; assay: flow cytometry, hCCR8 transfected CHOK1 cells
How it was run: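 Flow cytometry read fluorescent secondary antibody (anti-mouse Alexa 488 or anti-human Fc PE) after washing, with matched isotype controls included.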

human CCR8 [14] = molecular target: T1, human CCR8; assay: flow cytometry, inhibition of hCCL1-AF647 binding to hCCR8 CHO cells
How it was run: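 hCCR8-transfected CHO cells preincubated 30 min at 4 °C with anti-CCR8 mAb from 10 μg/mL, 1/3 dilutions, 8 concentrations. Bound CCL1 quantified by flow cytometry. IC₅₀ from sigmoidal variable-slope fit.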

human CCR8 [15] = molecular target: T1, human CCR8; assay: cell-based or functional assay; remark: listed apart in the source
human CCR8 [16] = molecular target: T1, human CCR8; assay: cell-based or functional assay; remark: listed apart in the source

pm6, modified CCR8 related peptide (human, sulfated tyrosines at Y16 and Y17), sequence (peptide, as listed by the source): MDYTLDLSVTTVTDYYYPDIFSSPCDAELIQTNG
pm1, modified CCR8 related peptide (human, sulfated tyrosine at Y15), sequence (peptide, as listed by the source): as above
T2 sequence (peptide, as listed by the source): as above
pm8, modified CCR8 related peptide (human, sulfated tyrosines at Y15, Y16 and Y17), sequence (peptide, as listed by the source): as above
pm4, modified CCR8 related peptide (human, sulfated tyrosines at Y15 and Y16), sequence (peptide, as listed by the source): as above
pm2, modified CCR8 related peptide (human, sulfated tyrosine at Y16), sequence (peptide, as listed by the source): as above
pm3, modified CCR8 related peptide (human, sulfated tyrosine at Y17), sequence (peptide, as listed by the source): as above
pm5, modified CCR8 related peptide (human, sulfated tyrosines at Y15 and Y17), sequence (peptide, as listed by the source): as above

B2: anti-CCR8 mAb 2-1 (antibody, V domains shown)
VH: KVQLQQSGPELVKPGASVKISCKTSGYTFTEYTIHWVQQIHGKSPEWIGGINPNGDTRYDQKFKGKATLTIDKSSSTAYMELRSLTSEDSAVYYCARVARFYGISPYAMDYWGQGTSVTVSS
VL: DVVMTQTPLSLPVSLGDQASISCRCTQSLLHSNGDTYLHWYLQKPGQSPNLLIYKVSNRFSGVPDRFSGSGSGTDFTLKINRVEAEDLGVYFCSQSTHVPYTFGGGTNLEIK
IC50, CCL1 induced hCCR8 Gi2 signaling (BRET) at pH 6.5 (human CCR8 [3]): 0.051 µg/ml and 0.34 nM
IC50, CCL1 induced hCCR8 Gi2 signaling (BRET) at pH 7.4 (human CCR8 [3]): 0.059 µg/ml and 0.396 nM
hCCL1 (100 nM) residual response in %, Protocol #2, mAb 0.08 µg/mL (0.53 nM) (human CCR8 [4]): 101%
hCCL1 (100 nM) residual response in %, Protocol #2, mAb 0.4 µg/mL (2.67 nM) (human CCR8 [4]): 93%
hCCL1 (100 nM) residual response in %, Protocol #2, mAb 10 µg/mL (66.7 nM) (human CCR8 [4]): 100%
hCCL1 (100 nM) residual response in %, Protocol #3, mAb 0.05 µg/mL (0.33 nM) (human CCR8 [4]): 92%
hCCL1 (100 nM) residual response in %, Protocol #3, mAb 0.5 µg/mL (3.33 nM) (human CCR8 [4]): 81%
hCCL1 (100 nM) residual response in %, Protocol #3, mAb 5 µg/mL (33.3 nM) (human CCR8 [4]): 73%
binding result [5]: binds
binding result [6]: binds
binding result [7]: binds
binding result [8]: binds
binding result [9]: binds
binding result [10]: binds
binding result [11]: binds
binding result [12]: binds
% positive cells (human CCR8 [13]): 85.7%
MFI fold change to isotype ctrl (human CCR8 [13]): 9.8 fold
IC50 (human CCR8 [14]): 1.29 µg/mL and 8.62 nM
IC50, CCL1 induced hCCR8 Gi2 signaling (BRET, HEK-293) (human CCR8 [15]): 0.462 nM and 0.069 µg/mL
Top plateau values in presence of 5 µg/mL mAb (% of hCCL1 (100 nM)), protocol #3 (human CCR8 [16]): 663%

B3: anti-CCR8 mAb 2-2 (antibody, V domains shown)
VH: QVQLKESGPGLVAPSQSLSITCTVSGLSMNDYVVTWIRQPPGKGLEWLGVIWGGGNTYYNSDLKSRLSITKDNSKSQVFFKMSSLQTDDTAVYYCARRHRDYALDYWGQGISVTVSS
VL: DVVMTQTPLSLPVSLGDQASISCRSSQSLVYSNGNTYLHWYLQKPGQSPKLLIYKVSNRFSGVPDRFSGSGSGTDFTLKISRVEAEDLGVYFCSQSTYVPPTFGGGTKLEIK
IC50, CCL1 induced hCCR8 Gi2 signaling (BRET) at pH 6.5 (human CCR8 [3]): 0.414 µg/ml and 2.76 nM
IC50, CCL1 induced hCCR8 Gi2 signaling (BRET) at pH 7.4 (human CCR8 [3]): 0.359 µg/ml and 2.4 nM
hCCL1 (100 nM) residual response in %, Protocol #2, mAb 0.08 µg/mL (0.53 nM) (human CCR8 [4]): 99%
hCCL1 (100 nM) residual response in %, Protocol #2, mAb 0.4 µg/mL (2.67 nM) (human CCR8 [4]): 97%
hCCL1 (100 nM) residual response in %, Protocol #2, mAb 10 µg/mL (66.7 nM) (human CCR8 [4]): 97%
hCCL1 (100 nM) residual response in %, Protocol #3, mAb 0.05 µg/mL (0.33 nM) (human CCR8 [4]): 99%
hCCL1 (100 nM) residual response in %, Protocol #3, mAb 0.5 µg/mL (3.33 nM) (human CCR8 [4]): 84%
hCCL1 (100 nM) residual response in %, Protocol #3, mAb 5 µg/mL (33.3 nM) (human CCR8 [4]): 75%
binding result [5]: binds
binding result [6]: binds
binding result [7]: binds
binding result [8]: binds
binding result [9]: binds
binding result [10]: binds
binding result [11]: binds
binding result [12]: binds
% positive cells (human CCR8 [13]): 85.2%
MFI fold change to isotype ctrl (human CCR8 [13]): 11.9 fold
IC50 (human CCR8 [14]): 2.65 µg/mL and 15.2 nM
IC50, CCL1 induced hCCR8 Gi2 signaling (BRET, HEK-293) (human CCR8 [15]): 0.143 µg/mL and 0.954 nM
Top plateau values in presence of 5 µg/mL mAb (% of hCCL1 (100 nM)), protocol #3 (human CCR8 [16]): 133%

B4: anti-CCR8 mAb 2-4 (antibody, V domains shown)
VH: EVQLQQSGPELVKPGASVKISCKTSGYTFTEYTIHWVKQSHGESLEWVGGINPNNGNTRYDQKFKGKATLTIDKSSSPAYMELRSLTSEDSAVYYCARVARSSGSGPYAMDYWGQGTSVTVSS
VL: DVVMTQTPLSLPVSLGDQASISCRCTQSLLHTNGDTYLHWYLQKPGQSPKLLIYKVSNRFSGVPDRFSGSGSGTDFTLKISRVEAEDLGVYFCSQSTHVPYTFGGGTKLEIK
hCCL1 (100 nM) residual response in %, Protocol #2, mAb 0.08 µg/mL (0.53 nM) (human CCR8 [4]): 104%
hCCL1 (100 nM) residual response in %, Protocol #2, mAb 0.4 µg/mL (2.67 nM) (human CCR8 [4]): 46%
hCCL1 (100 nM) residual response in %, Protocol #2, mAb 10 µg/mL (66.7 nM) (human CCR8 [4]): 28%
hCCL1 (100 nM) residual response in %, Protocol #3, mAb 0.05 µg/mL (0.33 nM) (human CCR8 [4]): 80%
hCCL1 (100 nM) residual response in %, Protocol #3, mAb 0.5 µg/mL (3.33 nM) (human CCR8 [4]): 57%
hCCL1 (100 nM) residual response in %, Protocol #3, mAb 5 µg/mL (33.3 nM) (human CCR8 [4]): 45%
binding result [5]: binds
binding result [6]: binds
binding result [7]: binds
binding result [8]: binds
binding result [9]: binds
binding result [10]: binds
binding result [11]: binds
binding result [12]: binds
% positive cells (human CCR8 [13]): 56.2%
MFI fold change to isotype ctrl (human CCR8 [13]): 4.78 fold
IC50 (human CCR8 [14]): 0.6 µg/mL and 4.01 nM
IC50, CCL1 induced hCCR8 Gi2 signaling (BRET, HEK-293) (human CCR8 [15]): 0.046 µg/mL and 0.306 nM
Top plateau values in presence of 5 µg/mL mAb (% of hCCL1 (100 nM)), protocol #3 (human CCR8 [16]): 855%

Second part, the binder after the results:

ADCP % Max of phagocytosis, HUT78 targets, monocyte-derived macrophages Donor 9 (human CCR8 [1]): 7.27%
ADCC % Max lysis, HUT78 targets, NK cells Donor 3 (human CCR8 [2]): 25%
ADCC % Max lysis, HUT78 targets, NK cells Donor 4 (human CCR8 [2]): 28%
ADCC EC50, HUT78 targets, NK cells Donor 3 (human CCR8 [2]): 0.218 nM
ADCC EC50, HUT78 targets, NK cells Donor 4 (human CCR8 [2]): 0.053 nM
B1: chimeric anti-CCR8 mAb 2-18 (antibody, human IgG1, kappa)
heavy: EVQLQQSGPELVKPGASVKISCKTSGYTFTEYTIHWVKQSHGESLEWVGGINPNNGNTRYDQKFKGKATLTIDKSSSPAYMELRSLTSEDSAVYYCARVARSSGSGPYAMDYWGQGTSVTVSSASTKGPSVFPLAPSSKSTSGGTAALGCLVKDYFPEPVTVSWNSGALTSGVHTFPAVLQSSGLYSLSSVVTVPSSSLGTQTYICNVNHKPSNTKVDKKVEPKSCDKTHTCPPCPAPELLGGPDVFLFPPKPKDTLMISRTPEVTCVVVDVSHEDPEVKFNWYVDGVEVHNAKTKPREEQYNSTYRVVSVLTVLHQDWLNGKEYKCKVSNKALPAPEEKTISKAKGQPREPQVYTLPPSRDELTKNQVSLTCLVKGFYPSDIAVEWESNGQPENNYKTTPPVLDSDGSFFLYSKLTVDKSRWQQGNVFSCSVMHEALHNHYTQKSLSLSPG
light: DVVMTQTPLSLPVSLGDQASISCRCTQSLLHTNGDTYLHWYLQKPGQSPKLLIYKVSNRFSGVPDRFSGSGSGTDFTLKISRVEAEDLGVYFCSQSTHVPYTFGGGTKLEIKRTVAAPSVFIFPPSDEQLKSGTASVVCLLNNFYPREAKVQWKVDNALQSGNSQESVTEQDSKDSTYSLSSTLTLSKADYEKHKVYACEVTHQGLSSPVTKSFNRGEC

hCCL1 (100 nM) residual response in %, Protocol #2, mAb 0.08 µg/mL (0.53 nM) (human CCR8 [4]): 52%
hCCL1 (100 nM) residual response in %, Protocol #2, mAb 0.4 µg/mL (2.67 nM) (human CCR8 [4]): 68%
hCCL1 (100 nM) residual response in %, Protocol #2, mAb 10 µg/mL (66.7 nM) (human CCR8 [4]): 53%
hCCL1 (100 nM) residual response in %, Protocol #3, mAb 0.05 µg/mL (0.33 nM) (human CCR8 [4]): 76%
hCCL1 (100 nM) residual response in %, Protocol #3, mAb 0.5 µg/mL (3.33 nM) (human CCR8 [4]): 62%
hCCL1 (100 nM) residual response in %, Protocol #3, mAb 5 µg/mL (33.3 nM) (human CCR8 [4]): 59%
binding result [5]: binds
binding result [6]: binds
binding result [7]: binds
binding result [8]: binds
binding result [9]: binds
binding result [10]: binds
binding result [11]: binds
binding result [12]: binds
% positive cells (human CCR8 [13]): 77%
MFI fold change to isotype ctrl (human CCR8 [13]): 9.2 fold
IC50 (human CCR8 [14]): 0.22 µg/mL and 1.46 nM
IC50, CCL1 induced hCCR8 Gi2 signaling (BRET, HEK-293) (human CCR8 [15]): 0.004 µg/mL and 0.029 nM
Top plateau values in presence of 5 µg/mL mAb (% of hCCL1 (100 nM)), protocol #3 (human CCR8 [16]): 948%
B5: anti-CCR8 mAb 2-10 (antibody, V domains shown)
VH: QVQVQQSGAELARPGASVKMSCKASGYTFTTYAMHWVKQRPGQGLEWIGHINPSSGYSNYNQKFKDKATLTADKSSSTAYMQLSSLTSEDSAVYYCARSEVRRGYFDVWGAGTTVTVSS
VL: DIQMTQTTSSLSASLGDRVTISCRTSQDIRNYLNWYQQKPDGTVKLLISYTSRLHSGVPSRFSGSGSGTDYSLTISNLEQEDFATYFCQQGNTLPPTFGGGTRVEIK
